Five molecules from paper PMC10248553 (The Journal of Biological Chemistry, 2023) can be followed below.

As usually defined, the Kd is a measure of binding affinity in units of concentration. Higher therefore signals weaker binding.

Where no end group is shown, it is not given here.

Experiment [1] has as its target RSK2 (44–367) (human, UniProt P51812 44-367). Nature of the experiment: ITC.
Experiment [2] addresses RSK2 (46–346) (human, UniProt P51812 46-346). The experiment in a line: crystal structure.

B1: SPRED2 (104–181) (domain or fragment)
chain: SPADARAFDRGVRKAIEDLIEGSTTSSSTIHNEAELGDDDVFTTATDSSSNSSQKREQPTRTISSPTSCEHRRIYTLG
Regarding B1, in experiment [1], the Kd was about 9 µM. The same measure, in the same setting: to Ac-ELGDDDVFTTATDSSS [SPRED2 (138–153) peptide] belongs 20 µM; to Ac-GDDDVFTTATDS [SPRED2 (140–151) peptide], 36 µM.

B2: SPRED2 (11–181) (domain or fragment)
chain: SYIVRVKAVVMTRDDSSGGWFPQEGGGISRVGVCKVMHPEGNGRSGFLIHGERQKDKLVVLECYVRKDLVYTKANPTFHHWKVDNRKFGLTFQSPADARAFDRGVRKAIEDLIEGSTTSSSTIHNEAELGDDDVFTTATDSSSNSSQKREQPTRTISSPTSCEHRRIYTLG
As for B2, the binding result in experiment [1] is listed as “binds”. On to Ac-STIHNEAELGDDDVFTTATDSSSNSSQKRE [SPRED2 (131–160) peptide], for which the binding result in experiment [2] and in experiment [1] was “binds” each time.
